Data set [1] is described as follows: Half-life of S0456 near-IR dye conjugates at the fracture site. Conditions: female, ND-4 Swiss-Webster, mouse, in vivo, sc, 250 nmol/mouse. The method, then:
(§1) All animal experiments were performed in accordance with protocols approved by Purdue University's Institutional Animal Care and Use Committee (IACUC).

The conditions of data set [2]: mouse, in vivo, iv. As to the method: as §1
Data set [3] concerns midshaft femur fractures. Conditions: mouse, in vivo.
Procedure: To explore the impact of peptide branching on payload targeting, the abilities of acidic oligo-aspartic acids constructed of either two chains of 5 aspartic acids each or a single linear chain of 10 aspartic acids to deliver the CK2.3 payload to fracture surfaces were compared. […] The biodistributions were determined 18 hours post-injection into ND-4 Swiss-Webster mice (n=5) bearing midshaft femur fractures 10 days post-fracture.
The biodistributions were determined 18 hours post-injection into ND-4 Swiss-Webster mice (n=5) bearing midshaft femur fractures 10 days post-fracture.
The biodistributions were determined 18 hours post-injection (e.g., into ND-4 Swiss-Webster mice (n=5) bearing midshaft femur fractures 10 days post-fracture).
In some instances, the biodistribution is determined 18 hours post-injection (e.g., into ND-4 Swiss-Webster mice (n=5) bearing midshaft femur fractures 10 days post-fracture).
The biodistribution was determined 18 hours post-injection (e.g., into ND-4 Swiss-Webster mice (n=5) bearing midshaft femur fractures 10 days post-fracture). In some instances, the accumulation of the labeled compounds in the fractured femurs are reported as a percent of the injected dose per gram of tissue. […]
Data set [4] can be described thus: Serum calcium after 21 days of treatment (QuantiChrom Calcium Assay). The format is in vivo, Swiss Webster mouse. Conditions: FIG. 25. From the text:
In some instances, using a targeted anabolic described herein (e.g., as opposed to free anabolics) is beneficial for treating bone fracture, such as, for example, because targeted anabolics hereof can limit the effects on the regulation of calcium metabolism that occurs in the kidneys for parathyroid hormones.
For quantitative determination of calcium ion (Ca^2+) and evaluation of drug effects on calcium metabolism, the QuantiChrom Calcium Assay Kit from BioAssay Systems (Hayward, CA) was used. A phenolsulfonphthalein dye in the kit specifically forms a very stable, blue-colored complex with free calcium. The intensity of the color, measured at 612 nm, is directly proportional to the calcium concentration in the sample. […] The serum was removed from the cell pellet and stored at −80° C. until calcium concentration quantification. […] After that, the samples were incubated for 3 minute at room temperature and optical density at 570-650 nm (peak absorbance at 612 nm) was read to obtain the ODSAMPLE. […] The plate was tapped to mix and optical density was measured at the same wavelength to get ODSTANDARD. […] Optical density was read at the same wavelength measurement to get ODBLANK. […]
where ODSAMPLE, ODBLANK, and ODSTANDARD are the OD readings of the Sample, Sample Blank, and the Sample plus Standard respectively; 10 is the concentration of the standard in mg/dL, and n is the sample dilution factor. […]

Non-standard residues stand in square brackets, D forms with d. Residues, ends and D or L forms follow the SMILES beside them. No end group written: not given here. *: point of attachment. X2 = CC1(C)C(/C=C/C2=C(Oc3ccc(CCNC(=O)CCN4C(=O)CC(*)C4=O)cc3)C(=C/C=C3/N(CCCCS(=O)(=O)O)c4ccc(S(=O)(=O)O)cc4C3(C)C)/CCC2)=[N+](CCCCS(=O)(=O)O)c2ccc(S(=O)(=O)O)cc21; Fmoc = O=C(OCC1c2ccccc2-c2ccccc21)*

With `CC1(C)C(/C=C/C2=C(Oc3ccc(CCNC(=O)CCN4C(=O)CC(SC[C@H](NC(=O)OCC5c6ccccc6-c6ccccc65)C(=O)N[C@H](CC(=O)O)C(=O)N[C@H](CC(=O)O)C(=O)N[C@H](CC(=O)O)C(=O)N[C@H](CC(=O)O)C(=O)N[C@H](CC(=O)O)C(=O)N[C@H](CC(=O)O)C(=O)N[C@H](CC(=O)O)C(=O)N[C@H](CC(=O)O)C(=O)N[C@H](CC(=O)O)C(=O)N[C@H](CC(=O)O)C(=O)O)C4=O)cc3)C(=C/C=C3/N(CCCCS(=O)(=O)O)c4ccc(S(=O)(=O)O)cc4C3(C)C)/CCC2)=[N+](CCCCS(=O)(=O)O)c2ccc(S(=O)(=O)O)cc21` (stereo partly shown) [(D)Asp10] (Fmoc-C(X2)[dD][dD][dD][dD][dD][dD][dD][dD][dD][dD]-OH), in data set [1], the half-life (in general, how long it takes for the measured level to halve) was above 100 h.
Turning to `N[C@@H](Cc1ccc(O)c(I)c1)C(=O)N[C@@H](CSC1CC(=O)N(CCC(=O)N[C@@H](CC(=O)O)C(=O)N[C@@H](CC(=O)O)C(=O)N[C@@H](CC(=O)O)C(=O)N[C@@H](CC(=O)O)C(=O)N[C@@H](CC(=O)O)C(=O)N[C@@H](CC(=O)O)C(=O)N[C@@H](CC(=O)O)C(=O)N[C@@H](CC(=O)O)C(=O)O)C1=O)C(=O)O` (stereo partly shown) [octa-aspartic acid] (HELM PEPTIDE1{[N[C@@H](Cc1ccc(O)c(I)c1)C(=O)N[C@@H](CSC1CC(=O)N(CCC(=O)[*:2])C1=O)C(=O)O].D.D.D.D.D.D.D.D}$$$$V2.0), the selectivity ratio in data set [2] is 11.2.
Take RQIKIWFQNRRMKWKKIPVGESLKDLIDQC [CK2.3]: in data set [3], the “fracture targetability of payloads coupled to (L)Asp10 (in words)” value is on record as “displayed no reduction in fracture accumulation”.
In the case of “SVSEIQLMHNLGKHLNSMERVEWLRKKLQDVHNFVALGAPLAPRDA[dE][dE][dE][dE][dE][dE][dE][dE][dE][dE] [SEQ ID NO: 13]”, in data set [4], the “blood (serum) calcium” value is “did not increase the blood calcium significantly in comparison to the free form”.

For the origin of these results see patent US20230399374A1, “Compounds, Compositions and Methods of Use to Treat Bone Fractures” (PURDUE RESEARCH FOUNDATION, priority 2020, published 2023).
